Patent US20250257133A1 (ADAGENE PTE, published 2025)
Where a chain is given by its changes, count along the chain named. Like-named read-outs stand apart in the source and are kept apart here.

B1: TY30120 (bispecific antibody, human IgG1, kappa, N297A)
light: DIQLTQSPSSLSASVGDRVTITCRASQSIRKYLNWYQQKPGKAPKLLIYAASTLQSGVPSRFSGSGSGTDFTLTISSLQPEDFATYFCSQGTHVPFTFGQGTKVEIKRTVAAPSVFIFPPSDEQLKSGTASVVCLLNNFYPREAKVQWKVDNALQSGNSQESVTEQDSKDSTYSLSSTLTLSKADYEKHKVYACEVTHQGLSSPVTKSFNRGEC
heavy: EVQLVESGGGLVQPGGSLRLSCAASGFTFSGYGIHWVRQAPGKGLEWIGWISPSGGDTKYAQKFQGRVTISRDNSKNTLYLQLNSLRAEDTAVYYCARGGTVVYFDYWGQGTLVTVSSASTKGPSVFPLAPSSKSTSGGTAALGCLVKDYFPEPVTVSWNSGALTSGVHTFPAVLQSSGLYSLSSVVTVPSSSLGTQTYICNVNHKPSNTKVDKKVEPKSCDKTHTCPPCPAPELLGGPSVFLFPPKPKDTLMISRTPEVTCVVVDVSHEDPEVKFNWYVDGVEVHNAKTKPREEQYASTYRVVSVLTVLHQDWLNGKEYKCKVSNKALPAPIEKTISKAKGQPREPQVYTLPPSRKKLTKNQVKLTCLVKGFYPSDIAVEWESNGQPENNYKTTPPVLDCDGSFFLYSKLTVDKSRWQQGNVFSCSVMHEALHNHYTQKSLSLSPGK
chain: EVQLVESGGGLVQPGGSLRLSCAASGFSLSTSGVGVSWIRQAPGKGLEWIGEIYHSGSTYYSPSLKSRVTISRDNSKNTLYLQLNSLRAEDTAVYYCARYGYYYYDFDYWGQGTLVTVSSGGGGSGGGGSGGGGSGGGGSDIQLTQSPSSLSASVGDRVTITCRASQSVDFHGISFLHWYQQKPGKAPKLLIYAASSLQSGVPSRFSGSGSGTDFTLTISSLQPEDFATYYCQQSYRSPRTFGQGTKVEIKEPKSSDKTHTCPPCPAPELLGGPSVFLFPPKPKDTLMISRTPEVTCVVVDVSHEDPEVKFNWYVDGVEVHNAKTKPREEQYASTYRVVSVLTVLHQDWLNGKEYKCKVSNKALPAPIEKTISKAKGQPREPQVYTDPPSRDELTKNQVSLTCLVDGFYPSDIAVEWESNGQPENCYKTTPPVLDSDGSFFLYSKLTVDKSRWQQGNVFSCSVMHEALHNHYTQDSLSLSPGK
notes: anti-B7H3 Fab x CD28 scFv BC10599 (VH-VL)-Fc
B2: TY29021 (bispecific antibody, human IgG1, kappa, N297A)
light: B1 light
heavy: B1 heavy
chain: B1 chain with S32G, G101E
notes: anti-B7H3 Fab x CD28 scFv WT (VH-VL)-Fc; also called TY29021 (WT)
B3: TY30121 (bispecific antibody, human IgG1, kappa, N297A)
light: B1 light
heavy: B1 heavy
chain: B1 chain with S37G, S62N, G101K, Y103D
notes: anti-B7H3 Fab x CD28 scFv BC10601 (VH-VL)-Fc
B4: TY30123 (bispecific antibody, human IgG1, kappa, N297A)
light: B1 light
heavy: B1 heavy
chain: B1 chain with S32G, S37G
notes: anti-B7H3 Fab x CD28 scFv BC10621 (VH-VL)-Fc
B5: TY21601 (antibody, V domains shown)
VH: EVQLVESGGGLVQPGGSLRLSCAASGFTFSGYGIHWVRQAPGKGLEWIGWISPSGGDTKYAQKFQGRVTISRDNSKNTLYLQLNSLRAEDTAVYYCARGGTVVYFDYWGQGTLVTVSS
VL: DIQLTQSPSSLSASVGDRVTITCRASQSIRKYLNWYQQKPGKAPKLLIYAASTLQSGVPSRFSGSGSGTDFTLTISSLQPEDFATYFCSQGTHVPFTFGQGTKVEIK
notes: also called parental anti-B7H3 mAb; B7H3 IgG
B6: TY27556 (bispecific antibody, human IgG1, kappa, N297A)
light: B1 light
heavy: B1 heavy
chain: DIQLTQSPSSLSASVGDRVTITCRASQSVDFHGISFLHWYQQKPGKAPKLLIYAASSLQSGVPSRFSGSGSGTDFTLTISSLQPEDFATYYCQQSYRSPRTFGQGTKVEIKGGGGSGGGGSGGGGSGGGGSEVQLVESGGGLVQPGGSLRLSCAASGFSLSTGGVGVSWIRQAPGKGLEWIGEIYHSGSTYYSPSLKSRVTISRDNSKNTLYLQLNSLRAEDTAVYYCARYEYYYYDFDYWGQGTLVTVSSEPKSSDKTHTCPPCPAPELLGGPSVFLFPPKPKDTLMISRTPEVTCVVVDVSHEDPEVKFNWYVDGVEVHNAKTKPREEQYASTYRVVSVLTVLHQDWLNGKEYKCKVSNKALPAPIEKTISKAKGQPREPQVYTDPPSRDELTKNQVSLTCLVDGFYPSDIAVEWESNGQPENCYKTTPPVLDSDGSFFLYSKLTVDKSRWQQGNVFSCSVMHEALHNHYTQDSLSLSPGK
notes: also called anti-B7H3xCD28 BsAb
B7: TY29815 (bispecific antibody, human IgG1, kappa, N297A)
light: DIQLTQSPSSLSASVGDRVTITCRASQSIPSFLNWYQQKPGKAPKLLIYAASSLQSGVPSRFSGSGSGTDFTLTISSLQPEDFATYYCQHYISWPRQFTFGQGTKVEIKRTVAAPSVFIFPPSDEQLKSGTASVVCLLNNFYPREAKVQWKVDNALQSGNSQESVTEQDSKDSTYSLSSTLTLSKADYEKHKVYACEVTHQGLSSPVTKSFNRGEC
heavy: EVQLVESGGGLVQPGGSLRLSCAASGYSISSGYYWGWIRQAPGKGLEWIGIIYPSGGGTNYAQKFQGRVTISRDNSKNTLYLQLNSLRAEDTAVYYCARGGGLGFDYWGQGTLVTVSSASTKGPSVFPLAPSSKSTSGGTAALGCLVKDYFPEPVTVSWNSGALTSGVHTFPAVLQSSGLYSLSSVVTVPSSSLGTQTYICNVNHKPSNTKVDKKVEPKSCDKTHTCPPCPAPELLGGPSVFLFPPKPKDTLMISRTPEVTCVVVDVSHEDPEVKFNWYVDGVEVHNAKTKPREEQYASTYRVVSVLTVLHQDWLNGKEYKCKVSNKALPAPIEKTISKAKGQPREPQVYTLPPSRKKLTKNQVKLTCLVKGFYPSDIAVEWESNGQPENNYKTTPPVLDCDGSFFLYSKLTVDKSRWQQGNVFSCSVMHEALHNHYTQKSLSLSPGK
chain: B1 chain with S32G, G101E
notes: also called TY29815 (WT); wild type anti-PD-L1xCD28 bsAb
B8: TY30413 (bispecific antibody, human IgG1, kappa, N297A)
light: B7 light
heavy: B7 heavy
chain: B1 chain with S32G, G101E, Y104H
notes: anti-PD-L1 Fab x CD28 scFv VH-VL (YYHY)-Fc

What was measured:
[1] = molecular target: Mouse CD28 (ELISA of Example 13) (mouse, UniProt P31041 20-150, limits assumed); test: ELISA
Mouse CD28 (ELISA of Example 13), sequence (P31041 20-150 limits assumed): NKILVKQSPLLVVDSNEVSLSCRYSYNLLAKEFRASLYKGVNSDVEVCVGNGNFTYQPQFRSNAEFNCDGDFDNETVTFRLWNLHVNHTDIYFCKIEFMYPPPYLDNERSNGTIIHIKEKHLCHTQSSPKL

[2] = molecular target: T1, Human CD28 (ELISAs of Examples 4 and 13) (human, UniProt P10747 19-152, limits assumed); test: ELISA
Mouse CD28 on cells = molecular target: T2, Mouse CD28 on cells (mouse, UniProt P31041 20-218); test: flow cytometry on mouse T cells, median fluorescence intensity; drawn table; parameters: AUC: unit not given beside the values
T2 construct: also called CD28 on mouse T cells
T2 sequence (P31041 20-218 limits assumed): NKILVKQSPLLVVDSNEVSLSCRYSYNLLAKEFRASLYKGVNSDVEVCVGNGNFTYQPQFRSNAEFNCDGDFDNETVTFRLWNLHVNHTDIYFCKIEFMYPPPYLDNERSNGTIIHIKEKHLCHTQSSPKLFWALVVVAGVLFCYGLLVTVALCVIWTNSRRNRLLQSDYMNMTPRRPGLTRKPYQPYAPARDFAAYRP

B7H3 on MDA-MB-231 cells = molecular target: T3, B7H3 on MDA-MB-231 cells (UniProt Q5ZPR3 29-534, limits assumed); test: flow cytometry, MDA-MB-231 cells
T3 construct: whole, on cells
T3 sequence (looked up): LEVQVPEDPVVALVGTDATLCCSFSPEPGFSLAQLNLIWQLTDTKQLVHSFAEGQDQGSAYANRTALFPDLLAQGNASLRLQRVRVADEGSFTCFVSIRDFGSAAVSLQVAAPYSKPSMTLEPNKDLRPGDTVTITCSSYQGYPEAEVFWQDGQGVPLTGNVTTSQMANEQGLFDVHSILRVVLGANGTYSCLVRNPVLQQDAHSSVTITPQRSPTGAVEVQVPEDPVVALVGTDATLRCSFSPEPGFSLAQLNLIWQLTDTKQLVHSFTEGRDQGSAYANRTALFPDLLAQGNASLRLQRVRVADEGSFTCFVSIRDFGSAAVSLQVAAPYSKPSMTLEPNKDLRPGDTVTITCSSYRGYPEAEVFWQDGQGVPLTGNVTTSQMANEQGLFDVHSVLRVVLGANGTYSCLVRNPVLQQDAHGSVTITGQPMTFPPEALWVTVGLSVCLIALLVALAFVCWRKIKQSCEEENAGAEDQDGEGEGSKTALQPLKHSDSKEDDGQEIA
Method: An isotype antibody was included as a negative control.
MDA-MB-231 cells were cultured and seeded in 96-well plates at 1.0×10⁵ cells/well and incubated with serially diluted test BsAbs for 60 minutes at 4° C. in 2% FBS/RPMI1640 buffer. Next, the cells were washed twice with DPBS and further incubated with secondary APC-anti-human IgG Fe antibody (1:400 dilution) for 30 minutes at 4° C. Finally, the cells were washed twice with DPBS and resuspended in FACS buffer for flow cytometry analysis. For analysis, the MFI values versus concentrations were plotted using FlowJo 10 software (FlowJo LLC) and the data were further fitted with four-parameter non-linear regression to obtain EC₅₀ values by GraphPad Prism version 7 for Windows.

[3] = molecular target: T1, Human CD28 (ELISAs of Examples 4 and 13); test: ELISA; remark: listed apart in the source

| Binder | EC50 [1] | EC50 [2] | AUC (Mouse CD28 on cells) | EC50 (Mouse CD28 on cells) | Max MFI (Mouse CD28 on cells) | EC50 (B7H3 on MDA-MB-231 cells) | fold reduction of binding activity against TY21601 (B7H3 on MDA-MB-231 cells) | EC50 [3] |
| --- | --- | --- | --- | --- | --- | --- | --- | --- |
| B1 | 74.2 nM | 3.03 nM | 4380 | 145 nM | 2710 |  |  |  |
| B2 |  | 36.4 nM | 549 |  | 364 |  |  |  |
| B3 | 108 nM | 5.73 nM | 4620 | 142 nM | 2860 |  |  |  |
| B4 | 96.4 nM | 3.59 nM | 3820 | 76.2 nM | 1980 |  |  |  |
| B5 |  |  |  |  |  | 0.453 nM |  |  |
| B6 |  |  |  |  |  | 12.8 nM | ~28 fold |  |
| B7 |  |  |  |  |  |  |  | 22.3 nM |
| B8 |  |  |  |  |  |  |  | 26.8 nM |
